Source: patent CN116203146A (BEIJING DONGFANG BIOTECH CO LTD, dated 2023)
Read-outs that look alike come from different tables or passages of the source.

Experiments:
[1] = target: T1, 人单核细胞白血病细胞(THP-1)表面LILRB4 (human, UniProt Q8NHJ6 22-448); assay: cell-based or functional assay
[2] = target: T1, 人单核细胞白血病细胞(THP-1)表面LILRB4; assay: cell-based or functional assay; remark: listed apart in the source

Binder | IC50, inhibition of ARG1 secretion by THP-1 cells in the presence of ApoE (arginase activity kit) [1] | IC50, inhibition of ARG1 secretion by THP-1 cells in the presence of ApoE (arginase activity kit) [2]
人源化抗LILRB4单克隆抗体HA-Ⅱ (human IgG1/Cκ) (antibody, V domains shown) VH: EVQLVESGGGLVKPGGSLRLSCAASGFTFSSYTMSWVRQAPGKGLEWVATISSGGTYTYYPDSVKGRFTISRDNAKNSLYLQMNSLRAEDTAVYYCARDGYDGFDYWGQGTTVTVSS VL: DIVMTQTPLSLSVTPGQPASISCRSSQSLAHSNGNTYLHWYLQKPGQSPQLLIYKVSNRFSGVPDRFSGSGSGTDFTLKISRVEAEDVGVYFCSQSTHVPTFGGGTKVEIKR | 250 µg/mL | 
MB-Ⅰ 鼠源抗LILRB4单克隆抗体 (mouse IgG1/Cκ) (antibody) heavy: QVQLQESGAELVKPGASVKLSCKASGYTFTNYWMHWVKQRPGQGLEWIGEINPSNGRTNYNEKFKTKATLTVDKSSSTAYMQLSSLTSEDSAVYYCARWGQLGLREGYYAVDYWGQGTSVTVSSAKTTPPSVYPLAPGSAAQTNSMVTLGCLVKGYFPEPVTVTWNSGSLSSGVHTFPAVLQSDLYTLSSSVTVPSSTWPSETVTCNVAHPASSTKVDKKIVPRDCGCKPCICTVPEVSSVFIFPPKPKDVLTITLTPKVTCVVVDISKDDPEVQFSWFVDDVEVHTAQTQPREEQFNSTFRSVSELPIMHQDWLNGKEFKCRVNSAAFPAPIEKTISKTKGRPKAPQVYTIPPPKEQMAKDKVSLTCMITDFFPEDITVEWQWNGQPAENYKNTQPIMDTDGSYFVYSKLNVQKSNWEAGNTFTCSVLHEGLHNHHTEKSLSHSPG light: DIVMTQSPSSLSASLGDRVTISCRASQDISNYLNWYQQKPDGTVKLLIYYTSRLHSGVPSRFSGSGSGTDYSLTISNLEQEDIATYFCQQGNTLPPTFGGGTKLEIKADAAPTVSIFPPSSEQLTSGGASVVCFLNNFYPKDINVKWKIDGSERQNGVLNSWTDQDSKDSTYSMSSTLTLTKDEYERHNSYTCEATHKTSTSPIVKSFNRNEC |  | 46 µg/mL
MA-Ⅰ 鼠源抗LILRB4单克隆抗体 (mouse IgG1/Cκ) (antibody) heavy: not shown light: DIVMTQTTLSLPVSPGDQASISCRSSQSLAHSNGNTYLHWYLQKPGQSPKLLIYKVSNRFSGVPDRFSGSGSGTDFTLKISRVEAEDLGVYFCSQSTLVPTFGGGTKLEIKADAAPTVSIFPPSSEQLTSGGASVVCFLNNFYPKDINVKWKIDGSERQNGVLNSWTDQDSKDSTYSMSSTLTLTKDEYERHNSYTCEATHKTSTSPIVKSFNRNEC |  | 23.9 µg/mL

Further lines, results first:

IC50, inhibition of ARG1 secretion by THP-1 cells in the presence of ApoE (arginase activity kit) [1] | IC50, inhibition of ARG1 secretion by THP-1 cells in the presence of ApoE (arginase activity kit) [2] | Binder
31.2 µg/mL |  | 人源化抗LILRB4单克隆抗体HA-Ⅰ (human IgG1/Cκ) (antibody, V domains shown) VH: EVQLVESGGGLVKPGGSLRLSCAASGFTFSSYTMSWVRQAPGKGLEWVSTISSGGTYTYYPDSVKGRFTISRDNAKNSLYLQMNSLRAEDTAVYYCARDGYDGFDYWGQGTTVTVSS VL: DIVMTQTPLSLSVTPGQPASISCRSSQSLAHSNGNTYLHWYLQKPGQSPQLLIYKVSNRFSGVPDRFSGSGSGTDFTLKISRVEAEDVGVYYCSQSTHVPTFGGGTKVEIKR
98.5 µg/mL |  | 人源化抗LILRB4单克隆抗体HA-Ⅲ (human IgG1/Cκ) (antibody, V domains shown) VH: EVQLVESGGGLVKPGGSLRLSCAASGFTFSSYTMSWVRQAPGKGLEWVATISSGGTYTYYPDSVKGRFTISRDNAKNSLYLQMNSLRAEDTAVYYCTRDGYDGFDYWGQGTTVTVSS VL: DIVMTQTPLSLSVTPGQPASISCRSSQSLAHSNGNTYLHWYLQKPGQSPKLLIYKVSNRFSGVPDRFSGSGSGTDFTLKISRVEAEDVGVYFCSQSTHVPTFGGGTKVEIKR
